Measured values reported in patent publication US20180264110A1.

Columns and labels:
[1] = biological target: BTLA overexpressed on 293T cells (human) (UniProt Q7Z6A9); assay: FACS, 293T cells overexpressing BTLA
[2] = biological target: BTLA overexpressed on 293T cells (human) (UniProt Q7Z6A9); assay: FACS, 293T cells overexpressing BTLA; secondary antibody alone (background control)

BTLA overexpressed on 293T cells (human), sequence (Q7Z6A9 31-289 limits assumed): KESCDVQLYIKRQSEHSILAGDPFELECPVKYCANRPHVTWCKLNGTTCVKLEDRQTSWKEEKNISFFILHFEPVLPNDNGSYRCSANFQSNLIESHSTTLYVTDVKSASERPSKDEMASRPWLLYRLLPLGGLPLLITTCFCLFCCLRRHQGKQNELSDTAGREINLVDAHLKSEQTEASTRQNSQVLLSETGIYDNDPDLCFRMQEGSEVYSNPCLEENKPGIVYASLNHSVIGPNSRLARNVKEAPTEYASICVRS

Substance | % Gate [1] | MR [1] | % Gate [2] | MR [2]
BTLA (MIH26) (antibody) | 91.3% | 2850 | – | –
Isotype (antibody) | 5.08% | 11.7 | – | –
2′Ab only (antibody) | – | – | 10.1% | 16.6
